Measured values taken from US20230151111A1 (AKESO BIOPHARMA, published 2023).

T1: human NT5E(1-552)-his (human, UniProt P21589 27-552)
T1 construct: The entry starts at Met 1
T1 sequence: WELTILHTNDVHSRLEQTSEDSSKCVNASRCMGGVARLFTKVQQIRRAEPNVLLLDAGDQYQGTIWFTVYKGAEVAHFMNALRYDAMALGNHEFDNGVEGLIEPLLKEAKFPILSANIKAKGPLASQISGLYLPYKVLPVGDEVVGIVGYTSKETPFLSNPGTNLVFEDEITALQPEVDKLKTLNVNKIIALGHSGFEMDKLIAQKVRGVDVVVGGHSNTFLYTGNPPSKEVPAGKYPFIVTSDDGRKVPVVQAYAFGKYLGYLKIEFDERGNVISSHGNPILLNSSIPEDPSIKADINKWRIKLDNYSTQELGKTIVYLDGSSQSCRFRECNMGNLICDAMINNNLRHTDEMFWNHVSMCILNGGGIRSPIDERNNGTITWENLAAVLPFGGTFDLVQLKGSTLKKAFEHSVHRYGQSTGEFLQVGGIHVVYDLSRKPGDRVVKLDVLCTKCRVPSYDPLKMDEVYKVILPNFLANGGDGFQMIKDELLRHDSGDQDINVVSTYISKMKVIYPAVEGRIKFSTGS

B1: P1D7V01 (bispecific antibody, human IgG1, kappa)
heavy: not shown
light: DIQMTQSPSSMSASVGDRVTFTCRASQDINTYLSWFQQKPGKSPKTLIYRANRLVSGVPSRFSGSGSGQDYTLTISSLQPEDMATYYCLQYDEFPLTFGAGTKLELKRTVAAPSVFIFPPSDEQLKSGTASVVCLLNNFYPREAKVQWKVDNALQSGNSQESVTEQDSKDSTYSLSSTLTLSKADYEKHKVYACEVTHQGLSSPVTKSFNRGEC
notes: Morrison form IgG-scFv
B2: P1D7V03 (bispecific antibody, human IgG1, kappa)
heavy: not shown
light: B1 light
notes: Morrison form IgG-scFv

Assays:
[1] = target: T2, PD-1-mFc (human, UniProt Q15116 25-170, limits assumed); assay: BLI (Fortebio), antibody on AHC sensor, PD-1-mFc 0.6-50 nM, 37 C
T2 construct: also called human PD-1-mFc
Experimental: The sample dilution buffer was PBST, 0.1% BSA, pH 7.4. The antibody was immobilized on an AHC sensor at a concentration of 5 μg/mL with an immobilization height of about 0.4 nm. The sensor was equilibrated in a buffer for 60 s, and the binding of the immobilized antibody on the sensor to the antigen PD-1-mFc at concentrations of 0.6-50 nM (three-fold dilution) was determined in 120 s. The protein was dissociated in the buffer for 180 s. The detection temperature was 37° C., the detection frequency was 0.3 Hz, and the sample plate shaking rate was 1000 rpm. The data were analyzed by 1:1 model fitting to obtain affinity constants.

[2] = target: T1, human NT5E(1-552)-his; assay: BLI (Fortebio), antibody on Protein A sensor, NT5E(1-552)-his 3.125-200 nM, 37 C
Experimental: The sample dilution buffer was PBST, pH 7.4. The antibody was immobilized on a Protein A sensor at a concentration of 5 μg/mL with the immobilization time of about 15 s. […] The protein was dissociated in the buffer for 600 s. The sensor was refreshed with 10 mM Gly solution, pH 1.5. The detection temperature was 37° C., the detection frequency was 0.6 Hz, and the sample plate shaking rate was 1000 rpm. The data were analyzed by 1:1 model fitting to obtain affinity constants.

[3] = target: T3, human PD-1-mFc-biotin (human, UniProt Q15116 25-170, limits assumed, biotin label, site not stated); assay: competitive ELISA, competitor coated PD-L1-mFc; antibody 5 ug/mL diluted 1:3
Experimental: (§1) After incubation, the microplate was blocked with a PBS solution containing 1% BSA at 37° C. for 2 h. After blocking, the plate was washed three times and dried. The antibody was serially diluted to 7 concentrations in a gradient ratio of 1:3 on a dilution plate with 10 μg/mL as the starting concentration, and a blank control was set. […] Then the mixture after reaction was added to the coated microplate, and the microplate was incubated for at 37° C. for 30 min. After incubation, the plate was washed three times with PBST and dried. SA-HRP (KPL, 14-30-00) working solution was added, and the plate was incubated at 37° C. for 30 min. After incubation, the plate was washed four times and patted dry. Then TMB (Neogen, 308177) was added in the dark for chromogenesis for 5 min, and a stop solution was added to terminate chromogenic reaction. Then the microplate was put into a microplate reader immediately, and the OD value of each well in the microplate was read at 450 nm. The data were analyzed and processed by SoftMax Pro 6.2.1.

[4] = target: T3, human PD-1-mFc-biotin; assay: competitive ELISA, competitor coated PD-L1-mFc; antibody 5 ug/mL
Experimental: as §1

T2 sequence (Q15116 other isoform, or with tags, fused parts or gaps limits assumed): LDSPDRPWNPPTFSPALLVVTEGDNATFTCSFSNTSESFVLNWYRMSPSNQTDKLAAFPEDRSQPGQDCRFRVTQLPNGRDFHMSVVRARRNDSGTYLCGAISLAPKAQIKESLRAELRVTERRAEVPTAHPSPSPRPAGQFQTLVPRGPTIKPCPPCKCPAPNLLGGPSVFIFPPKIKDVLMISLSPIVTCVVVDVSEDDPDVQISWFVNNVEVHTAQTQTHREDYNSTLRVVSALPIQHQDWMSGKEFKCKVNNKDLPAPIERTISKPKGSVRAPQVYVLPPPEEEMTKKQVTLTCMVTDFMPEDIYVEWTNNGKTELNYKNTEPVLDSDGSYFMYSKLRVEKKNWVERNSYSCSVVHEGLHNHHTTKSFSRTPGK
T3 sequence (Q15116 other isoform, or with tags, fused parts or gaps limits assumed): as above

Binder	Kd [1]	koff [1]	kon [1]	Kd [2]	koff [2]	kon [2]	OD450 [3]	OD450 [4]
B1	0.176 nM	7.37e-05 s⁻¹	419000 M⁻¹ s⁻¹	0.229 nM	4.13e-05 s⁻¹	181000 M⁻¹ s⁻¹	0.05 OD	
B2								0.048 OD
